Six sequences from the supplement of paper PMC5998384 can be followed below.

The test system of data set [1] is HeLa Kyoto. The data set can be described thus: solubility in G1/S (NP-40 vs SDS abundance) (log2 ratio); higher = more soluble. The following applies: cell cycle stage: G1/S.
The subject of data set [2] is HeLa Kyoto. Description: solubility change mitosis vs G1/S (difference of NP-40 vs SDS log2 ratios) (log2 ratio difference); higher = more soluble in mitosis.
Data set [3] deals with HeLa Kyoto. The data set can be described thus: melting temperature (median over replicates), in situ; higher = more thermally stable.
Data set [4] has as its system HeLa Kyoto. The data set can be described thus: thermal stability score vs G1/S (z-score of summed log2 fold changes over temperatures); higher = more thermally stable than in G1/S.
Where [5] appears, read: cell cycle stage: early G1 (4.5 h after nocodazole release).
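For melting temperature (median over replicates), in situ in this document: HeLa Kyoto cells synchronized by double thymidine or nocodazole block, proteins quantified by TMT10plex mass spectrometry, three independent biological replicates.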
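For solubility change mitosis vs G1/S (difference of NP-40 vs SDS log2 ratios) in this document: synchronized HeLa Kyoto cells (double thymidine block for G1/S, nocodazole release for mitosis), protein amounts in NP-40 versus SDS lysates quantified by mass spectrometry, three biological replicates.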
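For solubility in G1/S (NP-40 vs SDS abundance) in this document: HeLa Kyoto cells arrested at G1/S by double thymidine block, proteins quantified by TMT10plex mass spectrometry in mild NP-40 versus SDS extracts, three biological replicates.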
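For thermal stability score vs G1/S (z-score of summed log2 fold changes over temperatures) in this document: synchronized HeLa Kyoto cells, proteins quantified by TMT10plex mass spectrometry, three biological replicates, mitosis taken 0.5 h after nocodazole release, G1/S directly after double thymidine block.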

As for “MAGEGDQQDAAHNMGNHLPLLPAESEEEDEMEVEDQDSKEAKKPNIINFDTSLPTSHTYLGADMEEFHGRTLHDDDSCQVIPVLPQVMMILIPGQTLPLQLFHPQEVSMVRNLIQKDRTFAVLAYSNVQEREAQFGTTAEIYAYREEQDFGIEIVKVKAIGRQRFKVLELRTQSDGIQQAKVQILPECVLPSTMSAVQLESLNKCQIFPSKPVSREDQCSYKWWQKYQKRKFHCANLTSWPRWLYSLYDAETLMDRIKKQLREWDENLKDDSLPSNPIDFSYRVAACLPIDDVLRIQLLKIGSAIQRLRCELDIMNKCTSLCCKQCQETEITTKNEIFSLSLCGPMAAYVNPHGYVHETLTVYKACNLNLIGRPSTEHSWFPGYAWTVAQCKICASHIGWKFTATKKDMSPQKFWGLTRSALLPTIPDTEDEISPDKVILCL [CRBN]”, the “solubility in G1/S (log2)” value in the data set with HeLa Kyoto [1] is -0.152. For the same sequence, the “solubility change mitosis (log2)” value in the data set on HeLa Kyoto [2] is -0.303. The melting temperature is 53.7 °C in the data set with HeLa Kyoto [3] (cell cycle stage: G1/S) and 53.4 °C in the data set with HeLa Kyoto [3] (cell cycle stage: mitosis). Moreover, the thermal stability score with HeLa Kyoto [4] (setting [5]) is -0.823; with HeLa Kyoto [4] (cell cycle stage: mitosis) it was -2.4.
Consider “MAGGEDRGDGEPVSVVTVRVQYLEDTDPFACANFPEPRRAPTCSLDGALPLGAQIPAVHRLLGAPLKLEDCALQVSPSGYYLDTELSLEEQREMLEGFYEEISKGRKPTLILRTQLSVRVNAILEKLYSSSGPELRRSLFSLKQIFQEDKDLVPEFVHSEGLSCLIRVGAAADHNYQSYILRALGQLMLFVDGMLGVVAHSDTIQWLYTLCASLSRLVVKTALKLLLVFVEYSENNAPLFIRAVNSVASTTGAPPWANLVSILEEKNGADPELLVYTVTLINKTLAALPDQDSFYDVTDALEQQGMEALVQRHLGTAGTDVDLRTQLVLYENALKLEDGDIEEAPGAGGRRERRKPSSEEGKRSRRSLEGGGCPARAPEPGPTGPASPVGPTSSTGPALLTGPASSPVGPPSGLQASVNLFPTISVAPSADTSSERSIYKARFLENVAAAETEKQVALAQGRAETLAGAMPNEAGGHPDARQLWDSPETAPAARTPQSPAPCVLLRAQRSLAPEPKEPLIPASPKAEPIWELPTRAPRLSIGDLDFSDLGEDEDQDMLNVESVEAGKDIPAPSPPLPLLSGVPPPPPLPPPPPIKGPFPPPPPLPLAAPLPHSVPDSSALPTKRKTVKLFWRELKLAGGHGVSASRFGPCATLWASLDPVSVDTARLEHLFESRAKEVLPSKKAGEGRRTMTTVLDPKRSNAINIGLTTLPPVHVIKAALLNFDEFAVSKDGIEKLLTMMPTEEERQKIEEAQLANPDIPLGPAENFLMTLASIGGLAARLQLWAFKLDYDSMEREIAEPLFDLKVGMEQLVQNATFRCILATLLAVGNFLNGSQSSGFELSYLEKVSEVKDTVRRQSLLHHLCSLVLQTRPESSDLYSEIPALTRCAKVDFEQLTENLGQLERRSRAAEESLRSLAKHELAPALRARLTHFLDQCARRVAMLRIVHRRVCNRFHAFLLYLGYTPQAAREVRIMQFCHTLREFALEYRTCRERVLQQQQKQATYRERNKTRGRMITETEKFSGVAGEAPSNPSVPVAVSSGPGRGDADSHASMKSLLTSRPEDTTHNRRSRGMVQSSSPIMPTVGPSTASPEEPPGSSLPSDTSDEIMDLLVQSVTKSSPRALAARERKRSRGNRKSLRRTLKSGLGDDLVQALGLSKGPGLEV [FHOD1]”, for which the “solubility in G1/S (log2)” value in the data set on HeLa Kyoto [1] was found to be 0.185. For the same sequence, in the data set with HeLa Kyoto [2], the “solubility change mitosis (log2)” value is -0.13. Also, the melting temperature was found to be 48 °C in the data set with HeLa Kyoto [3] (cell cycle stage: G1/S) and 48.1 °C in the data set with HeLa Kyoto [3] (cell cycle stage: mitosis). Besides, the figures for the thermal stability score in the data set on HeLa Kyoto [4] (setting [5]) and in the data set with HeLa Kyoto [4] (cell cycle stage: mitosis) were 1.05 and 2.72, respectively.
With “MAGGPPKALPSTGPHSLRDMPHPLAGSSSEEAVGGDSTPSPDLLMARSFGDKDLILPNGGTPAGTSSPASSSSLLNRLQLDDDIDGETRDLFVIVDDPKKHVCTMETYITYRITTKSTRVEFDLPEYSVRRRYQDFDWLRSKLEESQPTHLIPPLPEKFVVKGVVDRFSEEFVETRRKALDKFLKRITDHPVLSFNEHFNIFLTAKDLNAYKKQGIALLTRMGESVKHVTGGYKLRTRPLEFAAIGDYLDTFALKLGTIDRIAQRIIKEEIEYLVELREYGPVYSTWSALEGELAEPLEGVSACIGNCSTALEELTDDMTEDFLPVLREYILYSDSMKSVLKKRDQVQAEYEAKLEAVALRKEDRPKVPADVEKCQDRMECFNADLKADMERWQNNKRQDFRQLLMGMADKNIQYYEKCLMAWESIIPLLQEKQEAK [SNX30]”, the “solubility in G1/S (log2)” value in the data set with HeLa Kyoto [1] amounted to 0.262. In addition, the “solubility change mitosis (log2)” value with HeLa Kyoto [2] is -0.31. Further, the melting temperature stood at 50.1 °C in the data set with HeLa Kyoto [3] (cell cycle stage: G1/S) and 50.7 °C in the data set with HeLa Kyoto [3] (cell cycle stage: mitosis). The results for the thermal stability score in the data set on HeLa Kyoto [4] (setting [5]) and in the data set with HeLa Kyoto [4] (cell cycle stage: mitosis) were 0.333 and 1.76, respectively.
With “MAGKSSLFKVILLGDGGVGKSSLMNRYVTNKFDTQLFHTIGVEFLNKDLEVDGHFVTMQIWDTAGQERFRSLRTPFYRGSDCCLLTFSVDDSQSFQNLSNWKKEFIYYADVKEPESFPFVILGNKIDISERQVSTEEAQAWCRDNGDYPYFETSAKDATNVAAAFEEAVRRVLATEDRSDHLIQTDTVNLHRKPKPSSSCC [RAB9A]”, the “solubility in G1/S (log2)” value in the data set with HeLa Kyoto [1] was -0.0893. In addition, the “solubility change mitosis (log2)” value in the data set with HeLa Kyoto [2] is -0.207. Moreover, the melting temperature in the data set with HeLa Kyoto [3] (cell cycle stage: G1/S) came to 54.3 °C; in the data set on HeLa Kyoto [3] (cell cycle stage: mitosis), 54.2 °C. In addition, the thermal stability score with HeLa Kyoto [4] (setting [5]) was -1.81; with HeLa Kyoto [4] (cell cycle stage: mitosis) it was -3.52.
“MAGLPRRIIKETQRLLAEPVPGIKAEPDESNARYFHVVIAGPQDSPFEGGTFKLELFLPEEYPMAAPKVRFMTKIYHPNVDKLGRICLDILKDKWSPALQIRTVLLSIQALLSAPNPDDPLANDVAEQWKTNEAQAIETARAWTRLYAMNNI [UBE2N]”: the “solubility in G1/S (log2)” value in the data set on HeLa Kyoto [1] worked out at 0.641. Also, the “solubility change mitosis (log2)” value in the data set on HeLa Kyoto [2] is 0.111. Moreover, the melting temperature with HeLa Kyoto [3] (cell cycle stage: G1/S) and in the data set on HeLa Kyoto [3] (cell cycle stage: mitosis) was 52.1 °C each time. Moreover, the thermal stability score was -0.982 in the data set on HeLa Kyoto [4] (setting [5]) and -0.49 in the data set with HeLa Kyoto [4] (cell cycle stage: mitosis).
With “MAGLTVRDPAVDRSLRSVFVGNIPYEATEEQLKDIFSEVGPVVSFRLVYDRETGKPKGYGFCEYQDQETALSAMRNLNGREFSGRALRVDNAASEKNKEELKSLGTGAPVIESPYGETISPEDAPESISKAVASLPPEQMFELMKQMKLCVQNSPQEARNMLLQNPQLAYALLQAQVVMRIVDPEIALKILHRQTNIPTLIAGNPQPVHGAGPGSGSNVSMNQQNPQAPQAQSLGGMHVNGAPPLMQASMQGGVPAPGQMPAAVTGPGPGSLAPGGGMQAQVGMPGSGPVSMERGQVPMQDPRAAMQRGSLPANVPTPRGLLGDAPNDPRGGTLLSVTGEVEPRGYLGPPHQGPPMHHVPGHESRGPPPHELRGGPLPEPRPLMAEPRGPMLDQRGPPLDGRGGRDPRGIDARGMEARAMEARGLDARGLEARAMEARAMEARAMEARAMEARAMEVRGMEARGMDTRGPVPGPRGPIPSGMQGPSPINMGAVVPQGSRQVPVMQGTGMQGASIQGGSQPGGFSPGQNQVTPQDHEKAALIMQVLQLTADQIAMLPPEQRQSILILKEQIQKSTGAP [CSTF2]”, the “solubility in G1/S (log2)” value with HeLa Kyoto [1] turned out to be 0.323. Besides, the “solubility change mitosis (log2)” value in the data set on HeLa Kyoto [2] was determined as 0.172. Besides, the results for the melting temperature in the data set with HeLa Kyoto [3] (cell cycle stage: G1/S) and in the data set on HeLa Kyoto [3] (cell cycle stage: mitosis) were 53 °C and 53.2 °C, respectively. In addition, the values for the thermal stability score in the data set with HeLa Kyoto [4] (setting [5]) and in the data set with HeLa Kyoto [4] (cell cycle stage: mitosis) were -0.643 and -0.392, respectively.
